One block for each binder: values may come before it.
What was measured:
[1] = target: T1, PE- or biotin-conjugated human PD-1 Fc fusion protein (Acrobiosystems) (human, UniProt Q15116 25-167, limits assumed, PE- or biotin-conjugated); assay: flow cytometry, PD-1 Fc staining of transduced Jurkat Nur77-NeonGreen cells
T1 construct: Bought reagent (Acrobiosystems); also called PD-1-Fc-PE; PD-1 Fc chimera; not shown: Fc part of the bought fusion protein
Description: The biotin-conjugated PD-1-Fc protein was counterstained with BV421-conjugated Streptavidin (Invitrogen).
The EGFRt-tag was detected as a surrogate marker for CAR expression for the six constructs (FIGS. 2A and 9). CARs directed against antigens expressed in T cells may at times lead to fratricide and hamper CAR T cell production.

[2] = target: T2, PD-1 on the cell surface (Molt-4 cells; KG PD-1 cells) (UniProt Q15116 25-288, limits assumed); assay: flow cytometry of detectable cell surface PD-1 on Molt-4 cells that co-express the CAR (masking in cis)
T2 construct: whole, on cells; Molt-4 is a human acute lymphoblastic leukemia line; also called PD-1-expressing Molt 4 cells; K562 GFP (KG) PD-1 cells
T2 sequence (Q15116 25-288 limits assumed): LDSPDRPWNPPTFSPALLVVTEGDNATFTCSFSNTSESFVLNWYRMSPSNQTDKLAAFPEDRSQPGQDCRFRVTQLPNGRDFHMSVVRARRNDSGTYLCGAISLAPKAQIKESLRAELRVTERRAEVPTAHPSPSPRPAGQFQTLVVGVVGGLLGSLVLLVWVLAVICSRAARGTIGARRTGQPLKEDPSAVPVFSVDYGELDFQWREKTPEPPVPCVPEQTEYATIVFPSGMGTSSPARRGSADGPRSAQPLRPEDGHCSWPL

T1 sequence (Q15116 25-167 limits assumed): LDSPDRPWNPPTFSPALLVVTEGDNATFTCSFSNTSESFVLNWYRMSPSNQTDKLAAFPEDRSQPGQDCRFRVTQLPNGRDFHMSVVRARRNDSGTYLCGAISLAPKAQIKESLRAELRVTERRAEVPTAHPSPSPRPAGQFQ

binding result [1]: no binding
binding result [2]: no binding
B1: VH VL S anti-PD-1 CAR BD ΔCD3ζ (other)
chain: QVQLVQSGVEVKKPGASVKVSCKASGYTFANYFMYWVRQAPGQGLEWMGGIAPAAGGAAFNEKFKNRVTLTTDSSTTTAYMELKSLQFDDTAVYYCARADFAFDMGFDYWGQGTTVTVSSASTKGGGGGSGGGGSGGGGSEIVLTQSPATLSLSPGERATLSCRASKGVSTAGFSYLHWYQQKPGQAPRLLIFLASFLESGVPARFSGSGSGTDFTLTISSLEPEDFAVYYCQHARALPLTFGGGTKVEIKRTVAAPSVFIFPPSDEQLKSGTAESKYGPPCPPCPMFWVLVVVGGVLACYSLLVTVAFIIFWVKRGRKKLLYIFKQPFMRPVQTTQEEDGCSCRFPEEEEGGCEL
notes: Residues 1-22 are the GM-CSF signal peptide, left out

binding result [1]: no binding
binding result [2]: no binding
B2: VH VL S anti-PD-1 CAR BD (binding-defective) (other)
chain: QVQLVQSGVEVKKPGASVKVSCKASGYTFANYFMYWVRQAPGQGLEWMGGIAPAAGGAAFNEKFKNRVTLTTDSSTTTAYMELKSLQFDDTAVYYCARADFAFDMGFDYWGQGTTVTVSSASTKGGGGGSGGGGSGGGGSEIVLTQSPATLSLSPGERATLSCRASKGVSTAGFSYLHWYQQKPGQAPRLLIFLASFLESGVPARFSGSGSGTDFTLTISSLEPEDFAVYYCQHARALPLTFGGGTKVEIKRTVAAPSVFIFPPSDEQLKSGTAESKYGPPCPPCPMFWVLVVVGGVLACYSLLVTVAFIIFWVKRGRKKLLYIFKQPFMRPVQTTQEEDGCSCRFPEEEEGGCELRVKFSRSADAPAYQQGQNQLYNELNLGRREEYDVLDKRRGRDPEMGGKPRRKNPQEGLYNELQKDKMAEAYSEIGMKGERRRGKGHDGLYQGLSTATKDTYDALHMQALPPR
notes: as for B1
